Reference: the nanobody polyreactivity screen of Harvey et al. (2022)

Test: yeast display, Sf9 membrane polyspecificity reagent, FACS + sequencing; frameworks hold sequencing errors
In short: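 Synthetic nanobody libraries on Saccharomyces cerevisiae BJ5465 were galactose-induced for 36–48 hours, stained 1 hour at 4 °C with 10% biotinylated, detergent-solubilized Sf9 membrane reagent and enriched on streptavidin microbeads. FACS then separated cells into low and high (top ~1%) gates by anti-HA (expression) and streptavidin (reagent binding) fluorescence. Genes were colony-PCR amplified, MiSeq 2 × 250 sequenced and CDR-length filtered. A clone's polyreactivity label is that of its gate of origin.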

| Sequence | polyreactivity (PSR sort gate) |
| --- | --- |
| QVQLVESGGGLVQAGGSLRLSCAASGYTFQYYAMGWYRQAPGKERELVAAISRGVGSTTYYADSVKGRFTISRDNAKNTVYLQMNSLKPEDTAVYYCNHDFLGDEYDYWGQGTQVTVSS | high polyreactivity |
| QVQLVESGGGLVQAGGSLRLSCAASGYTFRGYAMGWYRQAPGKEREFVAAMNWSDGSTYYADSVKGRFTISRDNPKNTVYLQMNSLKPEDTAVYYCNADQYYRVPDNYWGQGTQVTVSS | low polyreactivity |
| QVQLVESGGGLVQAGGSLRLSCAASGYTFRHYVMGWYRQAPGKERELVAAITYSGGSTYYADSVKGRFTISRDNAKNTVYLQMNSLKPEDTAVYYCAARRRRSDPYDFWGQGTQVTVSS | high polyreactivity |
| QVQLVESGGGLVQAGGSLRLSCAASGYTFRYNAMGWYRQAPGKERELVAAISSSGGRTYYADSVKGRFTISRDYAKNTVYLQMNSLKPEDTAVYYCAADSSVKYWRYQAAYDYWGQGTQVTVSS | high polyreactivity |
| QVQLVESGGGLVQAGGSLRLSCAASGYTFSAYAMGWYRQAPGKERELVAVINRSGVRTYYADSVKGRFTISRDNAKNTVYLQMNSLKPEDTAVYYCAADYRNTVLEMDYWGQGTQVTVSS | high polyreactivity |
| QVQLVESGGGLVQAGGSLRLSCAASGYTFSGYAMGWYRQAPGKERELVAAISKRGGSTYYADSVKGRFTISRDNAKNTVYLQMNSLKPEDTAVYYCAKRSGYRSHYGYWGQGTQVTVSS | high polyreactivity |
| QVQLVESGGGLVQAGGSLRLSCAASGYTFSNNAMGWYRQAPGKERELFPTINSGGSTNYADSVKGRFTISRDNAKNTVYLQMNSLKPEDTAVYYCAAREDLYLYYNGQRVQYDYWGQGTQVTVSS | low polyreactivity |
| QVQLVESGGGLVQAGGSLRLSCAASGYTFSRYAMGWYRPAPGKERELVAAITGRGGSTYYADSVKGRFTISRDNAKNTVYLLMNSLKPEDTAVYYCAVGRYPYVWRYYYWGQGTQVTVSS | high polyreactivity |
| QVQLVESGGGLVQAGGSLRLSCAASGYTFSRYAMGWYRQAPGKERELVADISRSGGSTDYADSVKGRFTISRDNAKNTVYLQMNSLKPEDTAVYYCAKGSWWGYYSYGFDYWGQGTQVTVSS | high polyreactivity |
| QVQLVESGGGLVQAGGSLRLSCAASGYTFTINTMGWYRQAPGKERELVAAITWRGGSTYYADSVKGRFTISRDNANNTVYLQMNSLKPEDTAVYYCNKDYYITTTTFDYWGQGTQVTVSS | low polyreactivity |
| QVQLVESGGGLVQAGGSLRLSCAASGYTFTIYAMGWYRKAPGKERELVAAITGRGGRTNYADSVKGRFTISRDNAKNTVYLQMNSLKPEDTAVYYCNAVTKVVYHGPYGYDYWGQGTQVTVSS | high polyreactivity |
| QVQLVESGGGLVQAGGSLRLSCAASGYTFTSNDMGWYRQAPGKERELVAAITWSGGTTYYADSVKGRFTISRDNAKNTVYLQMNSLKPEDTAVYYCAAESTLPIIDRDDYWGQGTQVTVSS | low polyreactivity |
| QVQLVESGGGLVQAGGSLRLSCAASGYTFVIYAMGSYRQAPGKERELVAAITTIGGRTYYADSVKGRFTISRDNAKNTVYLQMNSLKPEDTAVYYCAADIRSNRLYDGGYWGQGTQVTVSS | low polyreactivity |
| QVQLVESGGGLVQAGGSLRLSCAASGYTFVYNALGWYRQAPGKEREFVAAITWSGTSTRYADSVKGRFTISRDNAKNTVYIQMTSLQPEDTAVYYCAARRRSAQSGSYNHWGQGTQVTVSS | high polyreactivity |
| QVQLVESGGGLVQAGGSLRLSCAASGYTFVYNGMGWYRQAPGKERELVAAITWGGAGTYYADSVKGRFTISRDNAKNTVYLQMISLKPEDTSVYYCAPPSPRSRAYTYRGDYWGQGTQVTVSS | low polyreactivity |
| QVQLVESGGGLVQAGGSLRLSCAASGYTFVYYAMGLYRQAPGKERELVAAITSGGRTNYADSVKGRFTISRDNAKNTVYLQMKSLKPEDTAVYYCNVDGYYLFVRGYEYWGQGTQVTVSS | low polyreactivity |
| QVQLVESGGGLVQAGGSLRLSCAASGYTFWQYAKGWYRQAPGKERELVVTITSRGGSTYYADSVKGRFTISRDNAKNTVYLHMNSLKPEDTAVYYCNARRRYSTRRSDYWGQGTQVTVSS | high polyreactivity |
| QVQLVESGGGLVQAGGSLRLSCAASGYTFYAYAMGWYRQAPGTERELVAAITSGSSTYYADSVKGRFTISRDNAKNTVYLQMNSLKPEDTAVYYCSAEVFPGYDYWGQGTQVTVSS | low polyreactivity |
| QVQLVESGGGLVQAGGSLRLSCAASGYTFYDNAMGWYRQAPGKEREFVASITWSGGSTYYADSVKGRVTISRDNAKNTVYLQMNSLKPEDTAVYYCAAESWFKYDYWGQGTQVTVSS | low polyreactivity |
| QVQLVESGGGLVQAGGSLRLSCAASGYTFYINGMGWSRQAPGKERELVAVITWSSGSTYYADSVKGRFTISRDNAKNTVYLQMKSLKPEDTAVYYCAADVTYEDGAWTLQYDYWGQGTQVTVSA | high polyreactivity |
| QVQLVESGGGLVQAGGSLRLSCAASGYTFYIYAMGWYIQAPGKERELVAAISWTDGSTYYADSVKGRFTISRDNAMNSVYLQMNSLKPEHTAVYYCAKTSLYAGAKEYDYWGQGTQVTVSS | low polyreactivity |
| QVQLVESGGGLVQAGGSLRLSCAASGYTFYQNTMGWYRQAPGKERELVADITRRGGSTYYADSVKGRFTISRDNAKNTVYLQINSLKPEDTAVYYCAARYGPWTGYATYRYASSRYNYWGQGTQVTVSS | high polyreactivity |

| Sequence | polyreactivity (PSR sort gate) |
| --- | --- |
| QVQLVESGGGLVQAGGSLRLSCAASGYTFYRNAMGWYRQAPGKERELVAAIRDDGSTYYADSVKGRFTISRDNAKNTVYLQMNSLKPEDTAVYYCAAAIPRQYWFGISHRRYYYWGQGTQVTVSS | low polyreactivity |
| QVQLVESGGGLVQAGGSLRLSCAASGYTFYSNAMGWYRQAPRKERELVASIRSRGRSTYYADSVKGRFTISRDNAKNTVDLQMNSLKPEDTAVYYCAALPNKPAVYAYDYWGQGTQVTVSS | low polyreactivity |
| QVQLVESGGGLVQAGGSLRLSCAASGYTFYYAMGWYRQAPGKERELVAAISAGGGRTYYADSVKGRFTISRDNAKNTDYLQMNSLKPEDTAVYYCNRVYRLTAYGYDYWGQGTQVTVSS | high polyreactivity |
| QVQLVESGGGLVQAGGSLRLSCAASGYTIESYTMGWYREAPGKEREFVAVISSSDTSTSYADSVKGRFTISRDNAKNTVYLQMNSLKPEDTAFYYCAAYSSPYYITYYWYNYDYWGQGTQVTVSS | low polyreactivity |
| QVQLVESGGGLVQAGGSLRLSCAASGYTIIVNAMGWYRQAPGKERELVAAISWSSVSTYYADSVKGRFTISRDNAKNTVYLQMNSLKPEDTAVYYCAAEGYDYSQWFDYWGQGTQVTASS | high polyreactivity |
| QVQLVESGGGLVQAGGSLRLSCAASGYTIRYYAMGWYRQAPGKERELVAAISYSGGRTYYADSVKGRFTISRDNAKNTDYLQMNSLKPEDTAVYYCNAGYYSYRYRYGYDYWGQGTQVTVSS | high polyreactivity |
| QVQLVESGGGLVQAGGSLRLSCAASGYTLDGYAMGWYRQAPGKEREFVAAIPFRGGGTYYADSVKGRFTISRDNAKNTDYLQMNSLKPEDTAVYYCNADTYDPFPWGSDYWGQGTQVTVSS | high polyreactivity |
| QVQLVESGGGLVQAGGSLRLSCAASGYTLGPNTMGWYRQAPGKERELVATITYSGGSTYYADSVKGRFTISRDNAKNTVYLQMNSLKPEDTAVYYCAARYGSRRIPGSLGYWGQGTQVTVSS | high polyreactivity |
| QVQLVESGGGLVQAGGSLRLSCAASGYTLGVNAMGWSRQAPGKERELVAAINYIDTRTYYADSVKGRFTISRDNAKNTVYLKLNSLKPEDTAVYYCAARPYVPWVKRYYYWGQGTQVTVSS | low polyreactivity |
| QVQLVESGGGLVQAGGSLRLSCAASGYTLRPNGMGWYRQAPGKERELVAAISSGGSTYYADSVKGRFTISRDNAKNTVYLQMISLKPEDTAVYYCAAEYWYDYWGQGTQVTVSS | low polyreactivity |
| QVQLVESGGGLVQAGGSLRLSCAASGYTSRSNAMGWYRQAPGKERELVAAIRGGGNTKYADSVKWRFTISRDNANNTVYLQMNSLKPEDTAVYYCAVVTGSFRTRYTYYYWGQGTQVTVSS | high polyreactivity |
| QVQLVESGGGLVQAGGSLRLSCAASGYTSVGNAMGWYRPAPWKERELVAAITYNGGNTYYADSVKGRFRISRDNAKNTVYLQMNSLKPEDTAVSYCATDSQELASSRFDYWGQGTQVTVSS | low polyreactivity |
| QVQLVESGGGLVQAGGSLRLSCAASGYTSYTYTMGWYRQAPGKDRELVAAISRRSDSTYSDSVKGRVTISRDNAKNSVYLQMNSLKPEDTAVYYCAAVRVSYRSLSKSYYWGQGTQVTVSS | high polyreactivity |
| QVQLVESGGGLVQAGGSLRLSCAASGYTYSDNAMGWYRPAPGKERELVAAITSGVSTYYADSVKGRFTISRDNAKNTVYLQMNSPKPEDTAVYYCAKDVAVYADLYQGAPYGYWGQGTQVTVST | low polyreactivity |
| QVQLVESGGGLVQAGGSLRLSCAASISSINAMGWYRQAPGKERELVAAIRWSGSSTYYADSVKGRFTISRDNAKNTVYLQMNSLKPEDTAVYYCAADTTTGDRGFDYWGQGTQVTVSS | high polyreactivity |
| QVQLVESGGGLVQAGGSLRLSCAASRGIFWVYAMGWYRQATGKEREMVAAISNSDTSTSYADSVKGRFTISRDNAKNTVYLQMNSLKPEDTALYYCNADSPSLSGDYWGQGTQVTVSS | low polyreactivity |
| QVQLVESGGGLVQAGGSLRLSCAASRLTFAGNAMGWYRQAPGKEREFVATITWSDGSTRYADSVKGRFTISRDNAKNSVYLQMNSLKPEDTAVSYCNTQYPDYFYEFNYWGQGTQVTVSW | low polyreactivity |
| QVQLVESGGGLVQAGGSLRLSCAASRLTFRYYAMGWYRKAPGKERELVAAISSRGASTYYADSVKGRFTISRDNAKNTVYLQMNSLKPEDTAVYNCAVRTYVYHWSFSSLPYDYWGQGTQVTVSS | high polyreactivity |
| QVQLVESGGGLVQAGGSLRLSCAASRLTFYGYGMGWYRQAPGKERELVASITSGGNTYYADSVKGRFTISRDNAKNTVYLRMNSLKPEDTAVYYCAVTAIALYYSSGYYWGQGTQVTVSS | low polyreactivity |
| QVQLVESGGGLVQAGGSLRLSCAASRRIFGQNVMGWYRQAPGKERELVAAITSAGRTYYADSVKGRFTISRDNAKNTVYLQMNSLKPEDTAVYYCAAYVRRGFDWGHGTQVTVSS | high polyreactivity |
| QVQLVESGGGLVQAGGSLRLSCAASRRIFSFNAMGWYRQAPGKDRELVAGSTYGGNTYYADSVKGSFTISRDNAKNTVYLQMNSLKPEDTAVYYCAAVRGGRHDYWGQGTQVTVSS | low polyreactivity |
